Experimental data taken from article PMC7091491.

What was measured:
[1] = target: G12-insertion ClpX^ΔN single-chain pseudohexamer (E. coli) (UniProt P0A6H1)
[2] = target: linker-deletion ClpX^ΔN single-chain pseudohexamer (E. coli) (UniProt P0A6H1)
[3] = target: wild-type single-chain ClpX^ΔN pseudohexamer (E. coli) (UniProt P0A6H1)

KM of Arc-st11-ssrA degradation (0.1 μM ClpX, 0.3 μM ClpP) [1]: 4.1 µM
KM of Arc-st11-ssrA degradation (0.1 μM ClpX, 0.3 μM ClpP); approximate [2]: 20 µM
KM of Arc-st11-ssrA degradation (0.1 μM ClpX, 0.3 μM ClpP) [3]: 2.5 µM
Substance: Arc-st11-ssrA
